Positions count from the first letter of the chain named.
B1: 6053-2 (bispecific antibody)
heavy: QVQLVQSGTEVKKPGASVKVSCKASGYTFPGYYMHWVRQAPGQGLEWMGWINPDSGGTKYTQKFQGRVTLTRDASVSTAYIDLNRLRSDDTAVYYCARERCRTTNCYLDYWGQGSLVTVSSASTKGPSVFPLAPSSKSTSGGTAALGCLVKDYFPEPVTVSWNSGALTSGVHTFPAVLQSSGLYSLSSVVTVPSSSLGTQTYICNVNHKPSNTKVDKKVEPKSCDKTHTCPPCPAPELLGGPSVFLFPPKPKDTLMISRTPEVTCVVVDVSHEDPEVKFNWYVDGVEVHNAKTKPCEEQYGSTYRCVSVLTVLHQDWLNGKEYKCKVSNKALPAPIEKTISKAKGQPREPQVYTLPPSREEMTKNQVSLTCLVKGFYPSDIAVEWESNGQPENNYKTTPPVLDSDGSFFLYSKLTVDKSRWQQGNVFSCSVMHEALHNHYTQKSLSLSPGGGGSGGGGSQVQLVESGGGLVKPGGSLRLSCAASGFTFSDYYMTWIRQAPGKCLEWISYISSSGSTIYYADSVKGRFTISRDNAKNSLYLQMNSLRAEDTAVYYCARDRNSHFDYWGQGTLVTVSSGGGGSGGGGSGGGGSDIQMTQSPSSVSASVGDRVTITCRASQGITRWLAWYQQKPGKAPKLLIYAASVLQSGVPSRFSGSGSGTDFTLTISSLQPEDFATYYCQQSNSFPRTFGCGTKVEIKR
light: QSALTQPASVSGSPGQSITISCTGTSSDVGNYNLVSWYQQHPGKAPKLMIYEVNRRPSGVSNRFSGSKSGNTASLTISGLQAEDEAEYYCCSYAGRDTFVVFGGGTKLTVLGQPKAAPSVTLFPPSSEELQANKATLVCLISDFYPGAVTVAWKADSSPVKAGVETTTPSKQSNNKYAASSYLSLTPEQWKSHRSYSCQVTHEGSTVEKTVAPTECS
notes: IgG-scFv: IgG (CD40) 39C2, scFv (MSLN) 4H6
B2: 6023-2 (bispecific antibody)
heavy: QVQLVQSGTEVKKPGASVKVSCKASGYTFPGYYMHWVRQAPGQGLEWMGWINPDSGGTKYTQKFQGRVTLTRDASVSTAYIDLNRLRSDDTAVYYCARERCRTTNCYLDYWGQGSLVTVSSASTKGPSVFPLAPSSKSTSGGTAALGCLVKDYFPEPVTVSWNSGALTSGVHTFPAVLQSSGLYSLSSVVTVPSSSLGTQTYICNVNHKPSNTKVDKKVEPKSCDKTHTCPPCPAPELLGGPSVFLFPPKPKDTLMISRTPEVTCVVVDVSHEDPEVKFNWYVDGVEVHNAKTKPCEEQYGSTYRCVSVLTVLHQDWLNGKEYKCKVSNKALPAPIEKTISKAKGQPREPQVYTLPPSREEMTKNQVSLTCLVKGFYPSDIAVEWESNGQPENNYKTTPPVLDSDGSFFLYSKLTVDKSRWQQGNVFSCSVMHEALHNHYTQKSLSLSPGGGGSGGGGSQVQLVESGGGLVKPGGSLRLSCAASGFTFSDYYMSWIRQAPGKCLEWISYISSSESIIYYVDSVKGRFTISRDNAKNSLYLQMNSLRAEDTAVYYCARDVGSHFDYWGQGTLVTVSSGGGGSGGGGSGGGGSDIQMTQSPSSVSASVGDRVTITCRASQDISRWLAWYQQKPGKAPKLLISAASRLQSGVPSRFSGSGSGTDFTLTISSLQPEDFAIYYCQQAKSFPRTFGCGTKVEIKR
light: B1 light
notes: IgG-scFv: IgG (CD40) 39C2, scFv (MSLN) 6F4
B3: 6051-2 (bispecific antibody)
heavy: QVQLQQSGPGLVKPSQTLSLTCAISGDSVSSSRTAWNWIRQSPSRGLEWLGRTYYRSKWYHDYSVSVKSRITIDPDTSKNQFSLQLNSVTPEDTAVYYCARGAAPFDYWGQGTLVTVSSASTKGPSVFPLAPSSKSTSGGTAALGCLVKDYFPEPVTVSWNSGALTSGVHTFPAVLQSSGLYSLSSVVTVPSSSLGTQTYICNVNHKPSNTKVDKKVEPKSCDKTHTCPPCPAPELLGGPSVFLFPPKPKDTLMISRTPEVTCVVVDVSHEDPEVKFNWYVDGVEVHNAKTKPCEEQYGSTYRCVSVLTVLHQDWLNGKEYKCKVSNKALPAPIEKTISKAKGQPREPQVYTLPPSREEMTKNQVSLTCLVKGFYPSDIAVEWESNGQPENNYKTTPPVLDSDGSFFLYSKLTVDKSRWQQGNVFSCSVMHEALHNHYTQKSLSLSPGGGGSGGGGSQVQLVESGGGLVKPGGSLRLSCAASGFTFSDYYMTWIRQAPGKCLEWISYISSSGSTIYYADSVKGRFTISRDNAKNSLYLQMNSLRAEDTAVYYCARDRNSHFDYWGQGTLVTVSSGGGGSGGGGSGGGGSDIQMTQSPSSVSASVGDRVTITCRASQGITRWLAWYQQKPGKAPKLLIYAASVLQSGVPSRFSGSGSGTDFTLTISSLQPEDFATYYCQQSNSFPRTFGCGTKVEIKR
light: EIVLTQSPGTLSLSPGERATLSCRASQSVSSNYLAWYQQKPGQAPRALIYAASNRAAGISDRFSGSGSGTDFTLTISRLEPEDFAVYFCQQYGSSPLTFGGGTKVEIKRTVAAPSVFIFPPSDEQLKSGTASVVCLLNNFYPREAKVQWKVDNALQSGNSQESVTEQDSKDSTYSLSSTLTLSKADYEKHKVYACEVTHQGLSSPVTKSFNRGEC
notes: IgG-scFv: IgG (CD40) 36F3, scFv (MSLN) 4H6
B4: 6055-2 (bispecific antibody)
heavy: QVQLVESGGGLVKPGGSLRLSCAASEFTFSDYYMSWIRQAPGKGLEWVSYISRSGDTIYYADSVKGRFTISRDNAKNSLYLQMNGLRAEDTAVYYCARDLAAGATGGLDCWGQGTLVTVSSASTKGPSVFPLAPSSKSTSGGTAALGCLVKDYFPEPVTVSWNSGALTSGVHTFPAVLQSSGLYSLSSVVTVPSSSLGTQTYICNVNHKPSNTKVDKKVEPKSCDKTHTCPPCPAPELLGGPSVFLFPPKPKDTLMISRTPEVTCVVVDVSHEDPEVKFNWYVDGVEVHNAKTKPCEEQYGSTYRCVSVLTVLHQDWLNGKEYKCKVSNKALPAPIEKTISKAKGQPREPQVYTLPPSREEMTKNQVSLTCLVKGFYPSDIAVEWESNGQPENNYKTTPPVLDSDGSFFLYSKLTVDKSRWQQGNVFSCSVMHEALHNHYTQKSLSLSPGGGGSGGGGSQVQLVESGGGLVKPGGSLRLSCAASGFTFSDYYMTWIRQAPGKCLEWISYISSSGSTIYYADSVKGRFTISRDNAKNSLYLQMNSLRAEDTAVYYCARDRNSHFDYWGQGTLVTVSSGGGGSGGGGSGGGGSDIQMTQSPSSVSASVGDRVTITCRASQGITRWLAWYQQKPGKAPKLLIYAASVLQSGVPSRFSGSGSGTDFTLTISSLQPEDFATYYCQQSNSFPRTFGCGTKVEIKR
light: SYELTQPPSVSVSPGQTASITCSGERLGNKYICWYQQKPGQSPVLVIYQDFKRPSGIPERFSGSNSGITATLTISGTQAMDEADYYCQAWDSRTVVFGGGTKLTVLGQPKAAPSVTLFPPSSEELQANKATLVCLISDFYPGAVTVAWKADSSPVKAGVETTTPSKQSNNKYAASSYLSLTPEQWKSHRSYSCQVTHEGSTVEKTVAPTECS
notes: IgG-scFv: IgG (CD40) 37A6, scFv (MSLN) 4H6
B5: 6054-2 (bispecific antibody)
heavy: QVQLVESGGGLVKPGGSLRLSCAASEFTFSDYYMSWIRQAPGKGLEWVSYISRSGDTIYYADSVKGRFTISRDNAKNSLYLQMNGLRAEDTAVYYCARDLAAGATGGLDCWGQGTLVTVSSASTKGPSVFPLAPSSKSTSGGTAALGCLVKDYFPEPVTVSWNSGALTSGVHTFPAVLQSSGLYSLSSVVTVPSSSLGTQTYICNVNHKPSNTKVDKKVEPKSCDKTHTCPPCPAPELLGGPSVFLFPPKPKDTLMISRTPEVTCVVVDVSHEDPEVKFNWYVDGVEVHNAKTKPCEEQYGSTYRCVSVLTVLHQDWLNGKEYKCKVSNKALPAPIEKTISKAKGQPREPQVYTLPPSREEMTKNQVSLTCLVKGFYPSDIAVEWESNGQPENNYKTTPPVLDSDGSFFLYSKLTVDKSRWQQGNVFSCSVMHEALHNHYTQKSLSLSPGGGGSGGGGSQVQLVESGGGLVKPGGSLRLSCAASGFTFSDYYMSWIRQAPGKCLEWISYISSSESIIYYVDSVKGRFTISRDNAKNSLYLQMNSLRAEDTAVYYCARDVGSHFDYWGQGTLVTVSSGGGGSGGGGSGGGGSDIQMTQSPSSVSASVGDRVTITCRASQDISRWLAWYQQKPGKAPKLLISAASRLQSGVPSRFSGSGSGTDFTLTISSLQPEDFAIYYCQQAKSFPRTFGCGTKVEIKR
light: B4 light
notes: IgG-scFv: IgG (CD40) 37A6, scFv (MSLN) 6F4
B6: 6043-2 (bispecific antibody)
heavy: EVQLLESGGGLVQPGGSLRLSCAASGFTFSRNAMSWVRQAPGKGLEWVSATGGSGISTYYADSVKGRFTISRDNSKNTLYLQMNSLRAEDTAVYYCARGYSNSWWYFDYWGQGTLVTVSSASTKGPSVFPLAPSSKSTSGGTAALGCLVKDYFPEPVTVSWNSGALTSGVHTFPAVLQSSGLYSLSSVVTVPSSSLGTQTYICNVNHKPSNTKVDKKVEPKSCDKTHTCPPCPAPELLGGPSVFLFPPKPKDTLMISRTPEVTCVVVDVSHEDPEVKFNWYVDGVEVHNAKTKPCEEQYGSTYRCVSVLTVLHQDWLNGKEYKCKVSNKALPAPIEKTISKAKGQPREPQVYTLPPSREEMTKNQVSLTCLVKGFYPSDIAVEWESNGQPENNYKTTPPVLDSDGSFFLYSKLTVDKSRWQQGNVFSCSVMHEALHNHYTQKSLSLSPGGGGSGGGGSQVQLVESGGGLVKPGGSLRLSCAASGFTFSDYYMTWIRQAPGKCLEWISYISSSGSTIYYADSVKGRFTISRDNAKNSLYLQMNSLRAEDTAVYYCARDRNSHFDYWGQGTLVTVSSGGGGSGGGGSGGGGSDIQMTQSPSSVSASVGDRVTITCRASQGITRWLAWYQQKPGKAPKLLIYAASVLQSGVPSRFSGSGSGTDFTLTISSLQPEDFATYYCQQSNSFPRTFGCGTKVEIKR
light: QSALTQPASVSGSPGQSITISCTGTSSDVGNYNLVSWYQQHPGKAPKLMIFEVNQRPSGVSNRFSGSKSGTTASLTISGLQAADEADYFCCSYTTSSTYVIFGGGTKLTVLGQPKAAPSVTLFPPSSEELQANKATLVCLISDFYPGAVTVAWKADSSPVKAGVETTTPSKQSNNKYAASSYLSLTPEQWKSHRSYSCQVTHEGSTVEKTVAPTECS
notes: IgG-scFv: IgG (CD40) 30A12, scFv (MSLN) 4H6
B7: Anti-CD40xMSLN IgG-Fab molecule 5966-1 (bispecific antibody)
chain 1: QVQLVESGGGLVKPGGSLRLSCAASGFTFSDYYMTWIRQAPGKGLEWISYISSSGSTIYYADSVKGRFTISRDNAKNSLYLQMNSLRAEDTAVYYCARDRNSHFDYWGQGTLVTVSS
chain 2: DIQMTQSPSSVSASVGDRVTITCRASQGITRWLAWYQQKPGKAPKLLIYAASVLQSGVPSRFSGSGSGTDFTLTISSLQPEDFATYYCQQSNSFPRTFGQGTKVEIK
chain 3: QVQLVESGGGLVKPGGSLRLSCAASEFTFSDYYMSWIRQAPGKGLEWVSYISRSGDTIYYADSVKGRFTISRDNAKNSLYLQMNGLRAEDTAVYYCARDLAAGATGGLDCWGQGTLVTVSS
chain 4: SYELTQPPSVSVSPGQTASITCSGERLGNKYICWYQQKPGQSPVLVIYQDFKRPSGIPERFSGSNSGITATLTISGTQAMDEADYYCQAWDSRTVVFGGGTKLTVLG
B8: Anti-CD40xMSLN IgG-Fab molecule 5970-1 (bispecific antibody)
chain 1: B7 chain 1 with T35S, G55E, T57I, A61V, R100V, N101G
chain 2: DIQMTQSPSSVSASVGDRVTITCRASQDISRWLAWYQQKPGKAPKLLISAASRLQSGVPSRFSGSGSGTDFTLTISSLQPEDFAIYYCQQAKSFPRTFGQGTKVEIKR
chain 3: QVQLVESGGGVVQPGRSLRLSCAASGFTFSSHGMHWVRQPPGKGLEWVAVIWYDGSNEYYGDSVKGRFTISRDNSKNTLYLQMNSLRVEDTAVYYCTRGGGHWNYEGHYYGMDVWGQGTTVTVSS
chain 4: QAVPTQPSSLSASPGASASLTCTLRSGINVGSSRIYWYQQKPGSPPQFLLRYTSDSDKLQGSGVPSRFSGSKDASANAGLLLISGLQSEDEADYYCMIWHSSAVVFGGGTKLTVLG
B9: Anti-CD40xMSLN IgG-Fab molecule 5968-1 (bispecific antibody)
chain 1: B7 chain 1 with T35S, G55E, T57I, A61V, R100V, N101G
chain 2: B8 chain 2
chain 3: EVQLLESGGGLVQPGGSLRLSCAASGFTFSRNAMSWVRQAPGKGLEWVSATGGSGISTYYADSVKGRFTISRDNSKNTLYLQMNSLRAEDTAVYYCARGYSNSWWYFDYWGQGTLVTVSS
chain 4: B6 light
B10: Anti-CD40xMSLN IgG-Fab molecule 5991-1 (bispecific antibody)
chain 1: B9 chain 3
chain 2: B6 light
chain 3: B7 chain 1 with T35S, G55E, T57I, A61V, R100V, N101G
chain 4: B8 chain 2

Legend:
[1] = target: T1, huCD40(1-193) (human, UniProt P25942 21-193); assay: Octet
T1 construct: also called soluble human CD40
Procedure: (§1) A panel of mesothelin×CD40 bispecific antibodies were generated in the IgG-scFv format (Table 13) and evaluated for binding to soluble forms of human and cynomolgus monkey CD40 and human and cynomolgus monkey mesothelin using the Octet assay (Table 14). Association rate (Kon), disassociation rate (Kdis), and equilibrium binding constant (KD) were calculated. […] These bispecific antibodies were next evaluated for their ability to induce mesothelin-dependent activation of human B cells. CHO cells expressing human mesothelin were seeded into a 96 well plate. The next day varying concentrations of the mesothelin×CD40 IgG-scFv antibodies were added to the wells along with purified human B cells and the plates were incubated for an additional 48 hours. Upregulation of CD86, a marker of CD40-mediated B cell activation, was quantified on B cells by flow cytometry.

[2] = target: T2, cynoCD40(1-193) (cynomolgus monkey, UniProt P25942 21-193 (human entry)); assay: Octet
T2 construct: also called soluble cynomolgus monkey CD40
T2 chain: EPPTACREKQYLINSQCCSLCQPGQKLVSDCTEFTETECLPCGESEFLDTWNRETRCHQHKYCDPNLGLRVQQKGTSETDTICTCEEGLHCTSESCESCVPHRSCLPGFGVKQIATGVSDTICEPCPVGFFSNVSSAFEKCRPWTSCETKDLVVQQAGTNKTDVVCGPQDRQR
Procedure: as §1

[3] = target: T3, huMSLN(296-598) (human, UniProt Q13421 296-598); assay: Octet
T3 construct: also called soluble human mesothelin
Procedure: as §1
T3 sequence (Q13421 other isoform, or with tags, fused parts or gaps): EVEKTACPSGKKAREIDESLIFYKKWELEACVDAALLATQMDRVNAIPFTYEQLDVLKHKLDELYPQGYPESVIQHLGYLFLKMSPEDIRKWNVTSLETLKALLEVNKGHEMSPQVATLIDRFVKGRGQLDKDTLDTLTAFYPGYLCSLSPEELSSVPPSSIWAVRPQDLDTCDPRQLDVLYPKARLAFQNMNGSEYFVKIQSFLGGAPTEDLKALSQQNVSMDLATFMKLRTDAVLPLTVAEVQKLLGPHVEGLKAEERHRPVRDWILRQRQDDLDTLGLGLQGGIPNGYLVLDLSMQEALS

[4] = target: T4, cynoMSLN(296-598) (cynomolgus monkey); assay: Octet
T4 chain: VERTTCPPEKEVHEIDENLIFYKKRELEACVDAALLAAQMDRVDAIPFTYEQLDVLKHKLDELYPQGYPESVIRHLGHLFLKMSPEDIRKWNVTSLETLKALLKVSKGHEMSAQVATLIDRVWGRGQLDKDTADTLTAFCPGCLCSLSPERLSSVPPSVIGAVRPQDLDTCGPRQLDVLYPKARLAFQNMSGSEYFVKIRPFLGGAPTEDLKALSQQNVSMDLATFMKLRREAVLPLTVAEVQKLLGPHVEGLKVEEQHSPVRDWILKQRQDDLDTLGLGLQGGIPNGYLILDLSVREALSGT
Procedure: as §1

[5] = target: human CD40 (human, UniProt P25942 21-277); assay: cell-based or functional assay
[6] = target: T5, huCD40(1-193) (human, UniProt P25942 21-193); assay: Octet, soluble antigen
T5 construct: Soluble form used in Octet; also called human CD40; soluble human CD40

[7] = target: T6, cynoCD40(1-193) (cynomolgus monkey, UniProt P25942 21-193 (human entry)); assay: Octet, soluble antigen
T6 construct: Soluble form used in Octet; also called cynomolgus monkey CD40
T6 chain: T2 chain

[8] = target: huMSLN(296-598) (human, UniProt Q13421 296-598); assay: Octet, soluble antigen
Target sequence in this assay (Q13421 other isoform, or with tags, fused parts or gaps): as the sequence (Q13421 other isoform, or with tags, fused parts or gaps) above

[9] = target: human CD40 on purified human B cells (human, UniProt P25942 21-277); assay: cell-based or functional assay

Binder	Kd [1] [nM]	koff [1] [s⁻¹]	kon [1] [M⁻¹ s⁻¹]	Kd [2] [nM]	koff [2] [s⁻¹]	kon [2] [M⁻¹ s⁻¹]	Kd [3] [nM]	koff [3] [s⁻¹]	kon [3] [M⁻¹ s⁻¹]	Kd [4] [nM]	koff [4] [s⁻¹]	kon [4] [M⁻¹ s⁻¹]	EC50 (nM), CD86 upregulation on human B cells with huMSLN-CHO cells [5] [nM]	Kd [6] [nM]	koff [6] [s⁻¹]	kon [6] [M⁻¹ s⁻¹]	Kd [7] [nM]	koff [7] [s⁻¹]	kon [7] [M⁻¹ s⁻¹]	Kd [8] [nM]	also measured
B1	0.9	0.000427	453000	0.5	0.000125	263000	0.4	0.000151	341000	4.3	0.00109	252000	0.00403	–	–	–	–	–	–	–	–
B2	1	0.00044	431000	0.9	0.000413	447000	1.1	0.00046	432000	16	0.00535	326000	0.00281	–	–	–	–	–	–	–	–
B3	3.5	0.000431	124000	4.7	0.000466	100000	0.2	0.000135	599000	5.5	0.00105	191000	0.00375	–	–	–	–	–	–	–	–
B4	0.5	0.000787	1.46e+06	0.8	0.00057	745000	0.4	0.000211	552000	6.1	0.00109	179000	0.00434	–	–	–	–	–	–	–	–
B5	0.8	0.000333	438000	1.4	0.0004	277000	1.3	0.000462	367000	17	0.00578	336000	0.00333	–	–	–	–	–	–	–	–
B6	1.2	0.000407	321000	0.9	0.000407	422000	0.1	3.87e-05	444000	4.3	0.0012	276000	0.00776	–	–	–	–	–	–	–	–
B7	–	–	–	–	–	–	–	–	–	–	–	–	–	0.7	0.000403	584000	0.9	0.000358	420000	0.2	koff [8]: 0.000176 s⁻¹; kon [8]: 878000 M⁻¹ s⁻¹; EC50 (nM), CD86 upregulation on human B cells in the presence of CHO cells expressing human mesothelin [9]: 0.008 nM
B8	–	–	–	–	–	–	–	–	–	–	–	–	–	1.6	0.000395	245000	1.3	0.000208	163000	0.3	koff [8]: 0.000258 s⁻¹; kon [8]: 774000 M⁻¹ s⁻¹; EC50 (nM), CD86 upregulation on human B cells in the presence of CHO cells expressing human mesothelin [9]: 0.005 nM
B9	–	–	–	–	–	–	–	–	–	–	–	–	–	0.4	0.000256	650000	0.7	0.000414	598000	0.3	koff [8]: 0.000353 s⁻¹; kon [8]: 1.03e+06 M⁻¹ s⁻¹; EC50 (nM), CD86 upregulation on human B cells in the presence of CHO cells expressing human mesothelin [9]: 0.004 nM
B10	–	–	–	–	–	–	–	–	–	–	–	–	–	0.4	0.000467	1.08e+06	0.2	0.000423	1.86e+06	1.3	koff [8]: 0.000242 s⁻¹; kon [8]: 181000 M⁻¹ s⁻¹; EC50 (nM), CD86 upregulation on human B cells in the presence of CHO cells expressing human mesothelin [9]: 0.004 nM

Reference: US20260109776A1 (Amgen, published 2026)
